Reference: the Immune Epitope Database (IEDB)

Key:
HLA-A*68:02 [1] = experiment: IEDB peptide-MHC binding, purified MHC/competitive/radioactivity; ≥ and ≤ were set here for values at or beyond the usual limits of such assays; settings: source organism: Human immunodeficiency virus type 1 (isolate YU2)
HLA-A*02:06 [2] = experiment: as above
HLA-A*02:02 [3] = experiment: as above; settings: source organism: Human immunodeficiency virus type 1 (isolate YU2)
HLA-A*02:03 [4] = experiment: as above
HLA-A*02:06 [5] = experiment: IEDB peptide-MHC binding, purified MHC/competitive/radioactivity; filed as Kd, often an IC50 or EC50 that approximates it; ≥ and ≤ were set here for values at or beyond the usual limits of such assays; settings: source organism: Human immunodeficiency virus type 1 (isolate YU2)
HLA-A*02:02 [6] = experiment: as above
HLA-A*68:02 [7] = experiment: as above
HLA-A*02:03 [8] = experiment: as above; settings: source organism: Human immunodeficiency virus type 1 (isolate YU2)
[9] = source organism: Human immunodeficiency virus type 1 (isolate YU2)
[10] = source organism: Human immunodeficiency virus 1

Sequence | IC50 (HLA-A*68:02 [1]) [nM] | IC50 (HLA-A*02:06 [2]; [9]) [nM] | IC50 (HLA-A*02:02 [3]) [nM] | IC50 (HLA-A*02:03 [4]; [9]) [nM] | further results
AIIRILQQL | 548 | 38.5 | 22.6 | 41.7 | –
ILKEPVHGV | – | – | – | – | Kd (HLA-A*02:06 [5]): ≥ 37000 nM
KAACWWAGI | – | 161 | – | 83.3 | Kd (HLA-A*02:02 [6]; [9]): 1080 nM
KMIGGIGGFI | – | 771 | 54.4 | 4.8 | Kd (HLA-A*68:02 [7]; [9]): 3.33 µM
LLQLTVWGI | 645 | 24.7 | 215 | 43.5 | –
LTFGWCFKL | 5.6 | 206 | 33.1 | – | Kd (HLA-A*02:03 [8]): 4.55 µM
LTFGWCFKLV | 6.2 | – | 48.9 | 185 | –
LVGPTPVNI | 67.8 | – | 154 | 19.2 | Kd (HLA-A*02:06 [5]): 2850 nM
MASDFNLPPV | 18.2 | 33.6 | 22.6 | 55.6 | –
MTNNPPIPV | 12.1 | – | – | 33.3 | Kd (HLA-A*02:06 [5]): 1610 nM; Kd (HLA-A*02:02 [6]; [9]): 7170 nM
RILQQLLFI | – | 37 | – | 125 | Kd (HLA-A*68:02 [7]; [9]): 1.82 µM; Kd (HLA-A*02:02 [6]; [9]): 1540 nM
SLLNATDIAV | – | – | – | – | IC50 (HLA-A*02:06 [2]; [10]): 28.5 nM; IC50 (HLA-A*02:03 [4]; [10]): 238 nM; Kd (HLA-A*68:02 [7]; [10]): 5.48 µM; Kd (HLA-A*02:02 [6]; [10]): 1300 nM
VLAEAMSQV | – | 116 | 82.7 | 15.2 | –
